Patent US20130309248A1

Columns and labels:
[1] = biological target: full-length recombinant H7 HA (A/Netherlands/219/2003) on PER.C6 cells (influenza A virus (H7N7)); test: FACS, IgG 5 µg/ml, HA-expressing PER.C6 cells; untransfected MFI 4
[2] = biological target: full-length recombinant H1 HA (A/New Caledonia/20/1999) on PER.C6 cells (influenza A virus (H1N1)); test: as above
[3] = biological target: full-length recombinant H3 HA (A/Wisconsin/67/2005) on PER.C6 cells (influenza A virus (H3N2)); test: as above
[4] = biological target: H3 HA antigen (A/Brisbane/10/2007) (influenza A virus (H3)); test: BLI (Octet RED), biotinylated HA on streptavidin sensor, 1:1 model
[5] = biological target: recombinant H3 HA (A/Wisconsin/67/2005) (influenza A virus (H3N2)); test: as above

**Q.** Which MFI [1] does the source give for CR8043 (antibody) here?
**A.** 11 MFI

**Q.** What about the MFI [2] of the same substance?
**A.** 4 MFI

**Q.** What about the MFI [3] of the same substance?
**A.** 646 MFI

**Q.** How did the Kd [4] turn out when Fab fragment of CR8020 was run?
**A.** 8.9 nM

**Q.** And the koff [4]?
**A.** 0.00143 s⁻¹

**Q.** And the kon [4]?
**A.** 181000 M⁻¹ s⁻¹

**Q.** What about the Kd [5] of the same substance?
**A.** 11.2 nM

**Q.** What about the koff [5] of the same substance?
**A.** 0.00208 s⁻¹

**Q.** And the kon [5]?
**A.** 203000 M⁻¹ s⁻¹

**Q.** Fab fragment of CR8043 was tested. Which Kd [4] did it give?
**A.** 0.3 nM

**Q.** And the koff [4]?
**A.** 8.69e-05 s⁻¹

**Q.** What about the kon [4] of the same substance?
**A.** 312000 M⁻¹ s⁻¹

**Q.** And the Kd [5]?
**A.** 0.3 nM

**Q.** What about the koff [5] of the same substance?
**A.** 9.86e-05 s⁻¹

**Q.** What about the kon [5] of the same substance?
**A.** 408000 M⁻¹ s⁻¹

**Q.** CR8020 (antibody) was tested. Which MFI [1] did it give?
**A.** 140 MFI

**Q.** And the MFI [2]?
**A.** 3 MFI

**Q.** What about the MFI [3] of the same substance?
**A.** 657 MFI
